Results: US6950754

Target: GCN4-p1
Assay: size exclusion chromatography, self-association

Chain of GCN4-p1 (peptide; modification not given) (chain, as listed by the source): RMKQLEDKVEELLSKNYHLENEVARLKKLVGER

Q: Which oligomerization state (N) does the source give for “GCN4-p1 (peptide; modification not given)” here?
A: The oligomerization state (N) was 2.
